Drawing on article PMC9751095 (2022), this text covers Kd for one molecule.

The test addresses T1, Myc-TRAP1 (human, UniProt Q12931 60-704).
T1 chain: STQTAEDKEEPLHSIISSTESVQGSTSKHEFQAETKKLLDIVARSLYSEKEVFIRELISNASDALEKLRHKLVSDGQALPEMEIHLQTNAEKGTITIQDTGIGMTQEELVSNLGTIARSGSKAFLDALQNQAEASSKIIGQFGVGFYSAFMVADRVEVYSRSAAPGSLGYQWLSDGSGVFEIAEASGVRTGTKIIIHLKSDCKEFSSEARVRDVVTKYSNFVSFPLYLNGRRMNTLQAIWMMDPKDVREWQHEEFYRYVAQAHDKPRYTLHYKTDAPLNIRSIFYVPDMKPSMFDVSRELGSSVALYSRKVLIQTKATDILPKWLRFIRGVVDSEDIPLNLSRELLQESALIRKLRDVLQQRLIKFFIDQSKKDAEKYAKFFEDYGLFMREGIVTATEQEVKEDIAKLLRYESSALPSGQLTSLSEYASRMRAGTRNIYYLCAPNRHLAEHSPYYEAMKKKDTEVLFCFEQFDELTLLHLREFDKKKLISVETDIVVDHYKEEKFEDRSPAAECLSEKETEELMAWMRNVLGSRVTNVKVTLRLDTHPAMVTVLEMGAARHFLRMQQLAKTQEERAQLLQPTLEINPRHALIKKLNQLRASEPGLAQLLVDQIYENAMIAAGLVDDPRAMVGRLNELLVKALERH
Briefly: SPR; printed as "Ka 69.8 µM". In general terms: SPR reads the build-up and loss of mass on a sensor chip optically.

B1: recombinant mature human OSCP (natural protein)
chain: FAKLVRPPVQVYGIEGRYATALYSAASKQNKLEQVEKELLRVAQILKEPKVAASVLNPYVKRSIKVKSLNDITAKERFSPLTTNLINLLAENGRLSNTQGVVSAFSTMMSVHRGEVPCTVTSASPLEEATLSELKTVLKSFLSQGQVLKLEAKTDPSILGGMIVRIGEKYVDMSVKTKIQKLGRAMREIV
Regarding B1, the Kd stood at 69.8 µM. This lies in the double-digit micromolar range.

Broadly, the Kd is the free concentration of one partner at which half of the binding sites on the other are occupied at equilibrium, for simple one-to-one binding.
